The values below come from PMC2903414 (The Journal of Biological Chemistry, 2010).

This test has as its target Flag-tagged full-length mouse sphingosine 1-phosphate receptor-1 (S1P1) (mouse, UniProt O08530 1-382). As to the kind of experiment: co-IP.

Chain of Flag-tagged full-length mouse sphingosine 1-phosphate receptor-1 (S1P1) (O08530 whole entry): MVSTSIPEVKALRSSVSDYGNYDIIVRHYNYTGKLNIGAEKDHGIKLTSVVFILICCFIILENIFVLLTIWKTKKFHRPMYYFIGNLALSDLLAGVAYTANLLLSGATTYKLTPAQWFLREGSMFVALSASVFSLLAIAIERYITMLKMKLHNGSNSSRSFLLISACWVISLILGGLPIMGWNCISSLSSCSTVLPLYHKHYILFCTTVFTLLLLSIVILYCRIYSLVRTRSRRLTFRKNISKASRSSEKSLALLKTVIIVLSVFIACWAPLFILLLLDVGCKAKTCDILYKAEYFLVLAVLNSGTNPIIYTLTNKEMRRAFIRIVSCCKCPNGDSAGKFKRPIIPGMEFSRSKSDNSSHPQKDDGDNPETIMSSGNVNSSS

B1: HA-tagged mouse CD69 (natural protein, UniProt P37217 1-199, looked up)
chain: MDSENCSITENSSSHLERGQKDHGTSIHFEKHHEGSIQVSIPWAVLIVVLITSLIIALIALNVGKYNCPGLYEKLESSDHHVATCKNEWISYKRTCYFFSTTTKSWALAQRSCSEDAATLAVIDSEKDMTFLKRYSGELEHWIGLKNEANQTWKWANGKEFNSWFNLTGSGRCVSVNHKNVTAVDCEANFHWVCSKPSR
In the case of B1, the “fold interaction compared with the control proteins NKRp1A and S1P3” value came out at 10 fold.
